According to PMC5234717 (Journal of Lipid Research, 2016):

Molecular target: Burkholderia pseudomallei K96243 sphingosine-1-phosphate lyase S1PL2021 (shorter ORF of BPSS2021, st (Burkholderia pseudomallei K96243))
Experiment: SEC

Burkholderia pseudomallei K96243 sphingosine-1-phosphate lyase S1PL2021 (shorter ORF of BPSS2021, st (enzyme)
stoichiometry N: 2
